{"source": "the supplement of paper PMC9732359", "note": "± gives the uncertainty stated by the source.", "data": [{"assay": "protein stability index of a GFP-peptide fusion (yeast GPS) (PSI 1-4); higher = more stable; sorted into four equal gates, so the index is relative within each strain", "conditions": "san1∆", "procedure,_shortened": "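Tiled 17-residue peptides from yeast proteins were fused downstream of GFP on a plasmid that also expresses Cherry, and the pooled library was carried in yeast. Mid-log cultures grown in leucine-free medium were sorted into four equal gates by GFP/Cherry fluorescence ratio. Plasmids from each gate were PCR-amplified and Illumina-sequenced, and reads were assigned to strains by barcodes. Each peptide's protein stability index is the sum, over gates, of the gate's read frequency multiplied by its gate number.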", "values": [{"sequence": "ATAEKLPNIYPSTRCKL [RPT2]", "protein stability index": "2.04 ± 0.1"}, {"sequence": "ATEKKSSSPLAMSETLS [PRE8]", "protein stability index": "2.44 ± 0.1"}, {"sequence": "ATEVTPQEPKHIQEEEE [RPC19]", "protein stability index": "3.14 ± 0.056"}, {"sequence": "ATFTSIELTSYESIATY [RPN7]", "protein stability index": "1.77 ± 0.046"}, {"sequence": "ATGKKSRGINKGHKFNN [RPL15A]", "protein stability index": "2.34 ± 0.12"}, {"sequence": "ATIRETYEIICDQTKSV [RRP43]", "protein stability index": "2.8 ± 0.063"}, {"sequence": "ATKEGVVLGVEKRATSP [PUP2]", "protein stability index": "3.15 ± 0.083"}, {"sequence": "ATLQSNEPTQKDEEETE [DSN1]", "protein stability index": "3.17 ± 0.1"}, {"sequence": "ATPIPEEVQQAQTEIKL [RPS5]", "protein stability index": "2.97 ± 0.096"}, {"sequence": "ATSTNPAKSASARGSYL [RPL17A]", "protein stability index": "2.53 ± 0.038"}, {"sequence": "AVAGLTADAEILINTAR [PRE9]", "protein stability index": "3.07 ± 0.1"}, {"sequence": "AVEKTLALGCHFQDQKN [POP7]", "protein stability index": "2.87 ± 0.078"}, {"sequence": "AVFIVPKILIREHERVI [SWP82]", "protein stability index": "1.69 ± 0.15"}, {"sequence": "AVGNLGNAIEVTEDGSI [RPL22B]", "protein stability index": "1.24 ± 0.19"}, {"sequence": "AVSAASVVSMSNDVLKP [SIR2]", "protein stability index": "2.82 ± 0.063"}, {"sequence": "AVSIETALEHKVVNGNS [FAS2]", "protein stability index": "1.34 ± 0.12"}, {"sequence": "AVYETLISRMIFIATQL [BRR2]", "protein stability index": "1.29 ± 0.096"}, {"sequence": "AYFLIIVPVISTIENVL [COB]", "protein stability index": "1.92 ± 0.059"}, {"sequence": "AYNKKSTISAREIQTAV [HTB1]", "protein stability index": "2.98 ± 0.12"}, {"sequence": "AYVAIEQVKDDGTSTEK [RPN8]", "protein stability index": "3.23 ± 0.15"}, {"sequence": "CDDESGDNEYITLRTSG [MCD1]", "protein stability index": "3.04 ± 0.072"}, {"sequence": "CDEHMGLSLAGLAPDAR [PRE5]", "protein stability index": "2.56 ± 0.12"}, {"sequence": "CEIHPSMILGVAASIIP [RPB2]", "protein stability index": "1.14 ± 0.15"}, {"sequence": "CESCSTILCTPTGGKAK [RPS27A]", "protein stability index": "2.1 ± 0.055"}, {"sequence": "CGDSIICNTLNIAKDLK [SMC1]", "protein stability index": "1.42 ± 0.12"}, {"sequence": "CGLMTVIAKLNHNQFEC [RPB2]", "protein stability index": "1.5 ± 0.12"}, {"sequence": "CIFGDAFDVDRAKSCGV [RPL1A]", "protein stability index": "2.57 ± 0.11"}, {"sequence": "CIIFMDEVDAIGGRRFS [RPT4]", "protein stability index": "2.88 ± 0.1"}, {"sequence": "CKKKEMSQYQSTMKENK [YIL149C/MLP2]", "protein stability index": "1.42 ± 0.23"}, {"sequence": "CLGIKDEEMLTSCTIPK [GAL11]", "protein stability index": "2.68 ± 0.049"}, {"sequence": "CLKRGWGHPTRMLLNLC [BRR2]", "protein stability index": "3.23 ± 0.079"}, {"sequence": "CLLSIPKSTKGKILTIK [YML103C/NUP188]", "protein stability index": "1.66 ± 0.11"}, {"sequence": "CNDEDKDLETLYNKIWT [ECM29]", "protein stability index": "2.44 ± 0.074"}, {"sequence": "CNERVPLSVATELMNRS [SRP72]", "protein stability index": "2.26 ± 0.052"}, {"sequence": "CPYCYKKRREYFPEGYN [SIR2]", "protein stability index": "2.61 ± 0.2"}, {"sequence": "CQILDGELDVLQIESVT [PRP8]", "protein stability index": "2.55 ± 0.065"}, {"sequence": "CRNINRKHRNAQFAGRA [DIS3]", "protein stability index": "2.18 ± 0.22"}, {"sequence": "CRVDFKNPHDIIEGINA [RPL12A]", "protein stability index": "1.83 ± 0.12"}, {"sequence": "CSKSIPKDKAIKRMAIR [RPS26A]", "protein stability index": "2.73 ± 0.065"}, {"sequence": "CSNNKNSIKNVPPILII [SSN2]", "protein stability index": "2.52 ± 0.17"}, {"sequence": "CSSATVPKHMLDKLDEI [AAR2]", "protein stability index": "2.98 ± 0.08"}, {"sequence": "CVHMVYEYAEHDLLQII [SSN3]", "protein stability index": "2.12 ± 0.11"}, {"sequence": "CYAPRPSAGPHKLRESL [RPS4A]", "protein stability index": "2.87 ± 0.11"}, {"sequence": "CYPQFAERDSQGGFYKQ [UBP6]", "protein stability index": "3.12 ± 0.058"}, {"sequence": "DAAAEEEKEEEAAEESD [RPP1B]", "protein stability index": "3.04 ± 0.1"}, {"sequence": "DAAEEEKEEEAKEESDD [RPP2B]", "protein stability index": "3.09 ± 0.3"}, {"sequence": "DAGKIDKHLYHVLYKES [RPL19A]", "protein stability index": "2.7 ± 0.091"}, {"sequence": "DAGVTFNKEQLNKFKKA [ECM29]", "protein stability index": "1.55 ± 0.14"}, {"sequence": "DAIAVTKGHGFEGVTHR [RPL3]", "protein stability index": "3.37 ± 0.1"}, {"sequence": "DAKTSYPNEVLKFNHGN [REC8]", "protein stability index": "3.02 ± 0.058"}, {"sequence": "DALEMQWRYLYDTQLKV [ARP7]", "protein stability index": "1.41 ± 0.088"}, {"sequence": "DANGVSLFELIVPIFQL [YJL039C/NUP192]", "protein stability index": "2.25 ± 0.062"}, {"sequence": "DANLLEEGETSRPLKKV [SWI3]", "protein stability index": "2.95 ± 0.082"}, {"sequence": "DASTPLRSTENGIVDQV [RPB2]", "protein stability index": "3.34 ± 0.06"}, {"sequence": "DAVEGVSECIILGQTMS [RPO31]", "protein stability index": "1.45 ± 0.12"}, {"sequence": "DAYYDLELRNSVMDDIL [PRP8]", "protein stability index": "2.93 ± 0.049"}, {"sequence": "DDDDYNAEKYFNNGDDD [RPC31]", "protein stability index": "3.06 ± 0.082"}, {"sequence": "DDEHNPTIVGGLYYQRP [AAR2]", "protein stability index": "2.62 ± 0.036"}, {"sequence": "DDIYDISLLKNRRKQSF [RPN4]", "protein stability index": "3.13 ± 0.12"}, {"sequence": "DDKDCTIKISTNDDSIK [RGR1]", "protein stability index": "2.98 ± 0.052"}, {"sequence": "DDLIHFTLKQWNRLTIS [COR1]", "protein stability index": "1.27 ± 0.066"}, {"sequence": "DDMDIDEVNDRSDISDS [PCI8]", "protein stability index": "3.26 ± 0.048"}, {"sequence": "DDPFMTKSGATTSEKQE [GAL11]", "protein stability index": "2.82 ± 0.23"}, {"sequence": "DDTAANNGDKDHLKLVS [YIL149C/MLP2]", "protein stability index": "2.81 ± 0.12"}, {"sequence": "DDVISNAGTNDNSFNEL [MCD1]", "protein stability index": "3.31 ± 0.06"}, {"sequence": "DDYSNEDNEMLEDLFSY [YJR042W/NUP85]", "protein stability index": "1.76 ± 0.18"}, {"sequence": "DEDIITIFKYLTDKDAF [CDC53]", "protein stability index": "3.21 ± 0.061"}, {"sequence": "DEGHVLKLENLHVVSKS [SIN4]", "protein stability index": "2.73 ± 0.19"}, {"sequence": "DEKEKQLAVANEIIRSL [SIR4]", "protein stability index": "2.31 ± 0.069"}, {"sequence": "DEKLKTEKLKNDKSEVL [SRB8]", "protein stability index": "3.24 ± 0.18"}, {"sequence": "DELCKLVTCEGSEEKAF [SRP54]", "protein stability index": "1.95 ± 0.18"}, {"sequence": "DELERILKELSNLETLY [RPB4]", "protein stability index": "3.21 ± 0.072"}, {"sequence": "DELILEAKERYTDRDQD [NNF1]", "protein stability index": "3.58 ± 0.1"}, {"sequence": "DELSSKELVECHLYSQR [NNF1]", "protein stability index": "2.13 ± 0.094"}, {"sequence": "DESDTISFRSNLLKNFI [SNF6]", "protein stability index": "2.58 ± 0.15"}, {"sequence": "DESLIRELYKYVRKHDP [PRP28]", "protein stability index": "2.83 ± 0.17"}, {"sequence": "DESSGTSRIDEEKPGLI [SMC4]", "protein stability index": "2.94 ± 0.05"}, {"sequence": "DEVDAIGGRRFSEGTSA [RPT4]", "protein stability index": "2.48 ± 0.1"}, {"sequence": "DFDNIEFKKIPRVKGFK [SEC65]", "protein stability index": "2.82 ± 0.078"}, {"sequence": "DFNEIVQYLSGAHGNSD [POP3]", "protein stability index": "1.18 ± 0.21"}, {"sequence": "DGGYNAQLAKAKTELNE [SMC2]", "protein stability index": "1.44 ± 0.072"}, {"sequence": "DGKKHSVFYTILRDYGP [RPO31]", "protein stability index": "3.19 ± 0.054"}, {"sequence": "DGMYSESKLSLETLFNR [FAS2]", "protein stability index": "3.32 ± 0.046"}, {"sequence": "DGRSFDQFRDVEITFGK [RRP45]", "protein stability index": "3.54 ± 0.077"}, {"sequence": "DHINGSGKRKPTKAAQR [GAL11]", "protein stability index": "3.1 ± 0.16"}, {"sequence": "DIDAVNGAVGKREGKTR [ISW2]", "protein stability index": "2.94 ± 0.1"}, {"sequence": "DIETQLCSMLQEASQVT [MED11]", "protein stability index": "2.32 ± 0.11"}, {"sequence": "DIGKEMSLRHFGHLMHY [RPN1]", "protein stability index": "1.23 ± 0.074"}, {"sequence": "DIIVAIKIFELKLPADA [IRR1]", "protein stability index": "1.59 ± 0.14"}, {"sequence": "DINQAKDFIENVNNRFD [BRN1]", "protein stability index": "3.3 ± 0.067"}, {"sequence": "DISLKADLERFFLSIYF [YJL039C/NUP192]", "protein stability index": "2.96 ± 0.099"}, {"sequence": "DITGIRDVSDDVFDTLA [GRR1]", "protein stability index": "2.95 ± 0.075"}, {"sequence": "DKDSEELDSKTRKILEI [MED4]", "protein stability index": "3.11 ± 0.061"}, {"sequence": "DKFFNEVNKSELYLTAE [SIR3]", "protein stability index": "3.23 ± 0.085"}, {"sequence": "DKIPLNYAMTRNILHNT [SRB5]", "protein stability index": "1.83 ± 0.081"}, {"sequence": "DKLKVYKQAMNETSEQL [SNF5]", "protein stability index": "3.13 ± 0.12"}, {"sequence": "DKLTRVHDKIWCCRSGS [PRE3]", "protein stability index": "2.67 ± 0.056"}, {"sequence": "DKNELQQMIITRLKSLL [SIR3]", "protein stability index": "2.12 ± 0.063"}, {"sequence": "DKRIVISIDSWPTTHKY [DIS3]", "protein stability index": "1.99 ± 0.16"}, {"sequence": "DKVTSQAVNNLIKTLST [RPP1]", "protein stability index": "2.47 ± 0.074"}, {"sequence": "DLALKMGVPIYGIVAMA [FAS2]", "protein stability index": "1.36 ± 0.28"}, {"sequence": "DLEGRANIFRIHSKSMS [RPT1]", "protein stability index": "3.21 ± 0.25"}, {"sequence": "DLEKLLEMSTEDFVKLA [RPS15]", "protein stability index": "3.44 ± 0.12"}, {"sequence": "DLLRSQLTSLEKDCSLR [YIL149C/MLP2]", "protein stability index": "2.33 ± 0.077"}, {"sequence": "DLTMGQVGERIKQTFKN [RPO21]", "protein stability index": "3.25 ± 0.073"}]}]}
